Article PMC6152271

Target: recombinant human soluble catechol-O-methyltransferase (human) (UniProt P21964)

bovine lactoferrin (natural protein) showed an IC50 of inhibition of COMT activity (methyl transfer from 14C-SAM to DBA) of 1.6 µM.
